In the supplement of paper PMC10567573:

B1: FAM98B (parent)
chain: QLDKNSEVYQEVQAMFDTLGIPKS

Variants of: B1
Test: protein stability index of a GFP-peptide fusion (GPS, HEK-293T) (PSI 1-6); higher = more stable
Conditions: c terminus: a fixed tail appended
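Also: lentivirally expressed fusions sorted by FACS into six bins by GFP to DsRed ratio, PSI derived from sequencing read proportions per bin multiplied by bin number.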

In order of rising protein stability index:
1. QLDKNSEVYQEVQAMFWTLGIPKS  1.57
2. QLDKNSEVYQEVQAMFITLGIPKS  1.83
3. QLDKNSEVYQEVQAMFYTLGIPKS  2.02
4. QLDKNSEVYQEVQAMWDTLGIPKS  2.1
5. QLDKNSEVYQEVQAMFLTLGIPKS  2.23
6. QLDKNSEVYQEVWAMFDTLGIPKS  2.24
7. QLDKNSEVYQEVYAMFDTLGIPKS  2.36
8. QLDKNSEVYQEVQAMFVTLGIPKS  2.38
9. QLDKNSEVYQEVQAMFHTLGIPKS  2.43
10. QLDKNSEVYQEVQAMFDTLRIPKS  2.44
11. QLDKNSEVYQEVQAMFMTLGIPKS  2.5
12. QLDKNSEVYQEVQAMFDTLMIPKS  2.5
13. QLDKNSEVYQEVFAMFDTLGIPKS  2.53
14. QLDKNSEVYQEVKAMFDTLGIPKS  2.55
15. QLDKNSEVYQEVQAMFDTLHIPKS  2.55
16. QLDKNSEVYQEVNAMFDTLGIPKS  2.56
17. QLDKNSEVYQEYQAMFDTLGIPKS  2.56
18. QLDKNSEVYQEVQAMHDTLGIPKS  2.58
19. QLDKNSEVYQEVRAMFDTLGIPKS  2.59
20. QLDKNSEVYQEVQAMFDTLCIPKS  2.63
21. QLDKNSEVYQEVQAMFCTLGIPKS  2.64
22. QLDKNSEVYQYVQAMFDTLGIPKS  2.7
23. QLDKNSEVYQEVQAMFRTLGIPKS  2.71
24. QLDKNSEVYQEVMAMFDTLGIPKS  2.73
25. QLDKNSEVYQESQAMFDTLGIPKS  2.77
26. QLDKNSEVYQEVQAMFKTLGIPKS  2.77
27. QLDKNSEVYQEVQAMIDTLGIPKS  2.79
28. QLDKNSEVYQERQAMFDTLGIPKS  2.8
29. QLDKNSEVYQEVQAMFQTLGIPKS  2.86
30. QLDKNSEVYQEVQAMFDTLVIPKS  2.86
31. QLDKNSEVYQEVCAMFDTLGIPKS  2.88
32. QLDKNSEVYQEVQAMFATLGIPKS  2.92
33. QLDKNSEVYQEVQAMRDTLGIPKS  2.92
34. QLDKNSEVYQEVQAMFDTLQIPKS  2.98
35. QLDKNSEVYQEAQAMFDTLGIPKS  3
36. QLDKNSEVYQEVQAMFDTLWIPKS  3
37. QLDKNSEVYQEVQAMFDTLPIPKS  3.01
38. QLDKNSEVYQEVQAMFDTLYIPKS  3.02
39. QLDKNSEVYQEVHAMFDTLGIPKS  3.03
40. QLDKNSEVYQEIQAMFDTLGIPKS  3.04
41. QLDKNSEVYQEVQAMFDTLAIPKS  3.04
42. QLDKNSEVYQEVQAMFDTLFIPKS  3.04
43. QLDKNSEVYQEVQAMFGTLGIPKS  3.08
44. QLDKNSEVYQEVGAMFDTLGIPKS  3.09
45. QLDKNSEVYQELQAMFDTLGIPKS  3.1
46. QLDKNSEVYQEVQAMFTTLGIPKS  3.12
47. QLDKNSEVYQEVQAMLDTLGIPKS  3.12
48. QLDKNSEVYQEVQAMFSTLGIPKS  3.14
49. QLDKNSEVYQEVQAMFDTLTIPKS  3.15
50. QLDKNSEVYQEVIAMFDTLGIPKS  3.19
51. QLDKNSEVYQEVQAMFDTLLIPKS  3.2
52. QLDKNSEVYQEVQAMFDTLIIPKS  3.21
53. QLDKNSEVYQEKQAMFDTLGIPKS  3.22
54. QLDKNSEVYQEVSAMFDTLGIPKS  3.24
55. QLDKNSEVYQEVPAMFDTLGIPKS  3.27
56. QLDKNSEVYQEVQAMFFTLGIPKS  3.27
57. QLDKNSEVYQEVLAMFDTLGIPKS  3.29
58. QLDKNSEVYQEMQAMFDTLGIPKS  3.29
59. QLDKNSEVYQEVQAMMDTLGIPKS  3.3
60. QLDKNSEVYQEVEAMFDTLGIPKS  3.34
61. QLDKNSEVYQEPQAMFDTLGIPKS  3.34
62. QLDKNSEVYQECQAMFDTLGIPKS  3.36
63. QLDKNSEVYQEVQAMCDTLGIPKS  3.38
64. QLDKNSEVYQEHQAMFDTLGIPKS  3.42
65. QLDKNSEVYQEVQAMFETLGIPKS  3.42
66. QLDKNSEVYQEVQAMSDTLGIPKS  3.42
67. QLDKNSEVYQEFQAMFDTLGIPKS  3.48
68. QLDKNSEVYQEVQAMFPTLGIPKS  3.49
69. QLDKNSEVYQEEQAMFDTLGIPKS  3.5
70. QLDKNSEVYQETQAMFDTLGIPKS  3.52
71. QLDKNSEVYQENQAMFDTLGIPKS  3.53
72. QLDKNSEVYQEQQAMFDTLGIPKS  3.56
73. QLDKNSEVYQEVQAMYDTLGIPKS  3.57
74. QLDKNSEVYQEVAAMFDTLGIPKS  3.58
75. QLDKNSEVYQEVQAMFDTLKIPKS  3.62
76. QLDKNSEVYQEVQAMFNTLGIPKS  3.73
77. QLDKNSEVYQEVQAMFDTLDIPKS  3.74
78. QLDKNSEVYQEVQAMFDTLSIPKS  3.75
79. QLDKNSEVYQEVQAMNDTLGIPKS  3.77
80. QLDKNSEVYQEVQAMFDTLEIPKS  3.77
81. QLDKNSEVYQEVQAMTDTLGIPKS  3.78
82. QLDKNSEVYQEVQAMGDTLGIPKS  3.78
83. QLDKNSEVYQEVDAMFDTLGIPKS  3.82
84. QLDKNSEVYQEVQAMADTLGIPKS  3.82
85. QLDKNSEVYQEWQAMFDTLGIPKS  3.85
86. QLDKNSEVYQEVTAMFDTLGIPKS  3.86
87. QLDKNSEVYQEVQAMVDTLGIPKS  3.94
88. QLDKNSEVYQEVQAMFDTLNIPKS  3.97
89. QLDKNSEVYQEGQAMFDTLGIPKS  4
90. QLDKNSEVYQEVQAMKDTLGIPKS  4.07
91. QLDKNSEVYQEVQAMQDTLGIPKS  4.11
92. QLDKNSEVYQEDQAMFDTLGIPKS  4.19
93. QLDKNSEVYQEVQAMEDTLGIPKS  4.36
94. QLDKNSEVYQEVQAMPDTLGIPKS  4.42
